In this test the target is T1, GST–HCF-1-C (GST fusion of the C-terminal half of human HCF-1, 1012–2036) (human, UniProt P51610 1012-2035).
T1 construct: HCF-1 (host cell factor C1), human, C-terminal half, residues 1012-2036 as printed; the printed end 2036 may count the stop codon; also called pGEX4T-1-hHCF-1-C; source: E. coli BL21(DE3), purified from soluble lysates
T1 sequence (looked up): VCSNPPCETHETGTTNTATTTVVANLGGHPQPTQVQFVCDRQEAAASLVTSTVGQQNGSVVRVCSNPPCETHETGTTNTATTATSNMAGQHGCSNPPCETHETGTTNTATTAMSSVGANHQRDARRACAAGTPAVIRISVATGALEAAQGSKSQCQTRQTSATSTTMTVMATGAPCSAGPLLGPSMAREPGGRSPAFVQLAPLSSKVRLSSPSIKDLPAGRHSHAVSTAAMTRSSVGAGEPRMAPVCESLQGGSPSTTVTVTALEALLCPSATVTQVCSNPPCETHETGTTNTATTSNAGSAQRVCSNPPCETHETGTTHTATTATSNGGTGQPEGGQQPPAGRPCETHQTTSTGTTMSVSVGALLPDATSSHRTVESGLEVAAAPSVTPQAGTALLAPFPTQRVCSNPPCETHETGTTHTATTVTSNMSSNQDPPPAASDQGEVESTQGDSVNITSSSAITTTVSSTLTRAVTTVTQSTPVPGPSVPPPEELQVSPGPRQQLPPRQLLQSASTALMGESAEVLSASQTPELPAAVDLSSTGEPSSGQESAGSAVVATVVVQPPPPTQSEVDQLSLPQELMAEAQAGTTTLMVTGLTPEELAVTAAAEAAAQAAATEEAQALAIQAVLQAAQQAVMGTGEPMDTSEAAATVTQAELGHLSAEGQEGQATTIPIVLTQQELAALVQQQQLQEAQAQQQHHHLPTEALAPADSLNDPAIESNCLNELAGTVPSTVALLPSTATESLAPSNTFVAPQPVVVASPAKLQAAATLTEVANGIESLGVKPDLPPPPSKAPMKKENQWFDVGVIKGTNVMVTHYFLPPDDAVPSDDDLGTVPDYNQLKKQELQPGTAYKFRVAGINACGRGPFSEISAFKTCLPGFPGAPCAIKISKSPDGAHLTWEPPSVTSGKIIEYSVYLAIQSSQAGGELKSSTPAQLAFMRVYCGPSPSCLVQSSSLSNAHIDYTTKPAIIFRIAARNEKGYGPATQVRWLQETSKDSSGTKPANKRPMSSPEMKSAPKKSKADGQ
The test can be described thus: pull-down; glutathione-Sepharose-immobilized GST-OGT and GST–HCF-1-C incubated with recombinant His6-tagged NRF1 fragments Fr. 1 and Fr. 2; washed extensively with PBS-T; immunoblot with anti-His6 and anti-GST. The settings on record: both partners purified. A general note: A western blot detects proteins with antibodies after separation by electrophoresis.

B1: mNRF1-Neh6L-His6 (Fr. 2; 431–580) (domain or fragment, mouse, UniProt Q61985 431-580, looked up)
chain: GFNPVQASQLEEEFDSDSGLSLDSSHSPSSLSSSEGSSSSSSSSSSSSASSSASSSFSEEGAVGYSSDSETLDLEEAEGAVGYQPEYSKFCRMSYQDPSQLSCLPYLEHVGHNHTYNMAPSALDSADLPPPSTLKKGSKEKQADFLDKQM
notes: NRF1, mouse, Neh6L domain, residues 431-580; The name is printed both as NRF1-Neh6L-His6 and as His6-NRF1-Neh6L; also called His6-NRF1-Neh6L; fragment 2; source: E. coli BL21(DE3), purified (Ni-NTA agarose)
As to B1, the binding result is recorded as “binds”.

The values are drawn from publication PMC6094050, “O-GlcNAcylation Signal Mediates Proteasome Inhibitor Resistance in Cancer Cells by Stabilizing NRF1” (Molecular and Cellular Biology, 2018).
